How the values were obtained:
[1] = molecular target: T1, soluble recombinant human FcγRIIIa (human, UniProt P08637 17-208, limits assumed); test: indirect competitive ELISA, FcγRIIIa coated, competitor MGAH22-Bt, against margetuximab Reference Standard; stored 2-8° C., 1 month
T1 construct: Coated on the ELISA plate; also called CD16a; Fcγ Receptor subtype IIIa
Method: (§1) Margetuximab contains point mutations in the Fc-domain that enhance the interaction of the margetuximab constant region with some human Fc receptors, in particular the Fcγ Receptor subtype […] (FcγRIIIa), also referred to as CD16a. The potency of the Fc domain is assessed with an indirect competitive enzyme linked immunosorbent assay (ELISA) essentially as described. The quantification of the binding of margetuximab test article Fc to the FcγRIIIa is measured by its ability to compete against the binding of a biotin-labeled margetuximab competitor sample (MGAH22-Bt). To perform the assay, soluble recombinant human FcγRIIIa is coated to the solid phase (96-well assay plates). A dilution series of margetuximab Test Article (TA) in a constant concentration of MGAH22-Bt is allowed to bind to the immobilized FcγRIIIa. A dilution-series of the test article and of the margetuximab Reference Standard is analyzed in this manner on the same assay plate, in order to generate dose-response curves for both the test article and the margetuximab Reference Standard. […] Oxidation of the added AP substrate by the conjugated AP yields a color product that can be measured at 405±10 nm. The intensity (absorbance) of the color signal is measured using a microplate reader. […] Data are fitted to a constrained four-parameter logistic model to describe absorbance signal as a function of margetuximab concentration. […]

[2] = molecular target: T1, soluble recombinant human FcγRIIIa; test: indirect competitive ELISA, FcγRIIIa coated, competitor MGAH22-Bt, against margetuximab Reference Standard; stored 2-8° C., 0 months
Method: as §1

[3] = molecular target: T1, soluble recombinant human FcγRIIIa; test: indirect competitive ELISA, FcγRIIIa coated, competitor MGAH22-Bt, against margetuximab Reference Standard; stored 2-8° C., 3 months
Method: as §1

[4] = molecular target: T1, soluble recombinant human FcγRIIIa; test: indirect competitive ELISA, FcγRIIIa coated, competitor MGAH22-Bt, against margetuximab Reference Standard; stored 2-8° C., 6 months
Method: as §1

[5] = molecular target: T1, soluble recombinant human FcγRIIIa; test: indirect competitive ELISA, FcγRIIIa coated, competitor MGAH22-Bt, against margetuximab Reference Standard; stored 2-8° C., 9 months
Method: as §1

[6] = molecular target: T1, soluble recombinant human FcγRIIIa; test: indirect competitive ELISA, FcγRIIIa coated, competitor MGAH22-Bt, against margetuximab Reference Standard; stored 2-8° C., 12 months
Method: as §1

[7] = molecular target: T1, soluble recombinant human FcγRIIIa; test: indirect competitive ELISA, FcγRIIIa coated, competitor MGAH22-Bt, against margetuximab Reference Standard; stored 2-8° C., 18 months
Method: as §1

[8] = molecular target: T1, soluble recombinant human FcγRIIIa; test: indirect competitive ELISA, FcγRIIIa coated, competitor MGAH22-Bt, against margetuximab Reference Standard; stored 2-8° C., 24 months
Method: as §1

[9] = molecular target: T1, soluble recombinant human FcγRIIIa; test: indirect competitive ELISA, FcγRIIIa coated, competitor MGAH22-Bt, against margetuximab Reference Standard; stored 2-8° C., 30 months
Method: as §1

[10] = molecular target: T1, soluble recombinant human FcγRIIIa; test: indirect competitive ELISA, FcγRIIIa coated, competitor MGAH22-Bt, against margetuximab Reference Standard; stored 2-8° C., 33 months
Method: as §1

[11] = molecular target: T1, soluble recombinant human FcγRIIIa; test: indirect competitive ELISA, FcγRIIIa coated, competitor MGAH22-Bt, against margetuximab Reference Standard; stored 2-8° C., 36 months
Method: as §1

[12] = molecular target: T1, soluble recombinant human FcγRIIIa; test: indirect competitive ELISA, FcγRIIIa coated, competitor MGAH22-Bt, against margetuximab Reference Standard; stored 2-8° C., 48 months
Method: as §1

[13] = molecular target: T1, soluble recombinant human FcγRIIIa; test: indirect competitive ELISA, FcγRIIIa coated, competitor MGAH22-Bt, against margetuximab Reference Standard; stored 25 ± 2° C., column head 1 month
Method: as §1

[14] = molecular target: T1, soluble recombinant human FcγRIIIa; test: indirect competitive ELISA, FcγRIIIa coated, competitor MGAH22-Bt, against margetuximab Reference Standard; stored 25 ± 2° C., column head 0 months
Method: as §1

[15] = molecular target: T1, soluble recombinant human FcγRIIIa; test: indirect competitive ELISA, FcγRIIIa coated, competitor MGAH22-Bt, against margetuximab Reference Standard; stored 25 ± 2° C., column head 2 months
Method: as §1

[16] = molecular target: T1, soluble recombinant human FcγRIIIa; test: indirect competitive ELISA, FcγRIIIa coated, competitor MGAH22-Bt, against margetuximab Reference Standard; stored 25 ± 2° C., column head 3 months
Method: as §1

[17] = molecular target: T1, soluble recombinant human FcγRIIIa; test: indirect competitive ELISA, FcγRIIIa coated, competitor MGAH22-Bt, against margetuximab Reference Standard; stored 25 ± 2° C., column head 4 months
Method: as §1

[18] = molecular target: T1, soluble recombinant human FcγRIIIa; test: indirect competitive ELISA, FcγRIIIa coated, competitor MGAH22-Bt, against margetuximab Reference Standard; stored 25 ± 2° C., column head 5 months
Method: as §1

[19] = molecular target: T1, soluble recombinant human FcγRIIIa; test: indirect competitive ELISA, FcγRIIIa coated, competitor MGAH22-Bt, against margetuximab Reference Standard; stored 25 ± 2° C., column head 6 months
Method: as §1

T1 sequence (P08637 17-208 limits assumed): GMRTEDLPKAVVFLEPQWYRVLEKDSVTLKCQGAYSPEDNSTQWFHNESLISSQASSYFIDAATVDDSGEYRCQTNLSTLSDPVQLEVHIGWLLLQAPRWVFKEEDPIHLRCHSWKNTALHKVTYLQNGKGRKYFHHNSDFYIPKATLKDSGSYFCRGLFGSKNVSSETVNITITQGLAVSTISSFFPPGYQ

B1: margetuximab (antibody, human IgG1, kappa)
heavy: QVQLQQSGPELVKPGASLKLSCTASGFNIKDTYIHWVKQRPEQGLEWIGRIYPTNGYTRYDPKFQDKATITADTSSNTAYLQVSRLTSEDTAVYYCSRWGGDGFYAMDYWGQGASVTVSSASTKGPSVFPLAPSSKSTSGGTAALGCLVKDYFPEPVTVSWNSGALTSGVHTFPAVLQSSGLYSLSSVVTVPSSSLGTQTYICNVNHKPSNTKVDKRVEPKSCDKTHTCPPCPAPELVGGPSVFLLPPKPKDTLMISRTPEVTCVVVDVSHEDPEVKFNWYVDGVEVHNAKTKPPEEQYNSTLRVVSVLTVLHQDWLNGKEYKCKVSNKALPAPIEKTISKAKGQPREPQVYTLPPSRDELTKNQVSLTCLVKGFYPSDIAVEWESNGQPENNYKTTPLVLDSDGSFFLYSKLTVDKSRWQQGNVFSCSVMHEALHNHYTQKSLSLSPGK
light: DIVMTQSHKFMSTSVGDRVSITCKASQDVNTAVAWYQQKPGHSPKLLIYSASFRYTGVPDRFTGSRSGTDFTFTISSVQAEDLAVYYCQQHYTTPPTFGGGTKVEIKRTVAAPSVFIFPPSDEQLKSGTASVVCLLNNFYPREAKVQWKVDNALQSGNSQESVTEQDSKDSTYSLSSTLTLSKADYEKHKVYACEVTHQGLSSPVTKSFNRGEC
notes: Chimeric Fc-optimized IgG1/kappa monoclonal antibody; Tested as drug product Lot A in the F1 formulation after storage; also called MGAH22; Margetuximab DP Lot A; copies: 2 + 2
relative potency by FcγRIIIa Binding ELISA (100% x IC50 Reference Standard/IC50 Test Article) [1]: 81% | relative potency by FcγRIIIa Binding ELISA (100% x IC50 Reference Standard/IC50 Test Article) [2]: 76% | relative potency by FcγRIIIa Binding ELISA (100% x IC50 Reference Standard/IC50 Test Article) [3]: 92% | relative potency by FcγRIIIa Binding ELISA (100% x IC50 Reference Standard/IC50 Test Article) [4]: 103% | relative potency by FcγRIIIa Binding ELISA (100% x IC50 Reference Standard/IC50 Test Article) [5]: 106% | relative potency by FcγRIIIa Binding ELISA (100% x IC50 Reference Standard/IC50 Test Article) [6]: 110% | relative potency by FcγRIIIa Binding ELISA (100% x IC50 Reference Standard/IC50 Test Article) [7]: 105% | relative potency by FcγRIIIa Binding ELISA (100% x IC50 Reference Standard/IC50 Test Article) [8]: 100% | relative potency by FcγRIIIa Binding ELISA (100% x IC50 Reference Standard/IC50 Test Article) [9]: 103% | relative potency by FcγRIIIa Binding ELISA (100% x IC50 Reference Standard/IC50 Test Article) [10]: 107% | relative potency by FcγRIIIa Binding ELISA (100% x IC50 Reference Standard/IC50 Test Article) [11]: 107% | relative potency by FcγRIIIa Binding ELISA (100% x IC50 Reference Standard/IC50 Test Article) [12]: 101% | relative potency by FcγRIIIa Binding ELISA (100% x IC50 Reference Standard/IC50 Test Article) [13]: 82% | relative potency by FcγRIIIa Binding ELISA (100% x IC50 Reference Standard/IC50 Test Article) [14]: 76% | relative potency by FcγRIIIa Binding ELISA (100% x IC50 Reference Standard/IC50 Test Article) [15]: 100% | relative potency by FcγRIIIa Binding ELISA (100% x IC50 Reference Standard/IC50 Test Article) [16]: 99% | relative potency by FcγRIIIa Binding ELISA (100% x IC50 Reference Standard/IC50 Test Article) [17]: 104% | relative potency by FcγRIIIa Binding ELISA (100% x IC50 Reference Standard/IC50 Test Article) [18]: 76% | relative potency by FcγRIIIa Binding ELISA (100% x IC50 Reference Standard/IC50 Test Article) [19]: 82%
